Laboratory results from paper PMC6054644.

How the values were obtained:
[1] = molecular target: rhodamine phalloidin F-actin (G-actin from Cytoskeleton, AKL99) (UniProt P68135); assay: ultrafast force-clamp spectroscopy (optical tweezers); single biotinylated myosin-5B on a streptavidin bead pedestal, single actin filament suspended between two trapped alpha-actinin beads; 25 mM MOPS pH 7.2, 25 mM KCl, 4 mM MgCl2, 1 mM EGTA, 2 uM CaM, 100 uM ATP; assistive and resistive forces 0.5-3 pN; no added Ca2+
[2] = molecular target: F-actin from rabbit skeletal muscle acetone powder (rabbit) (UniProt P68135)

Row | Substance | k0^+ (detachment rate from actin, exponential fit extrapolated to zero force, resistive forces, 100 µM ATP) [1] | k0^− (detachment rate from actin, exponential fit extrapolated to zero force, assistive forces, 100 µM ATP) [1] | actin-activated steady-state ATPase activity (NADH-coupled assay), Kapp for F-actin at 2000 µM ATP [2]
1 | biotinylated Avi-tag myosin-5B heavy meromyosin with bound calmodulin (from UniProt P21271 1-1095; P0DP29 1-149) (complex) | 0.64 s⁻¹ | 2.3 s⁻¹ | 
2 | myosin-5B heavy meromyosin with bound calmodulin (Flag-tagged) (from UniProt P21271 1-1095; P0DP29 1-149) (complex) |  |  | 1.34 µM
